Laboratory results from paper PMC12337289, “Cryo-EM structure and polar assembly of the PS2 S-layer of Corynebacterium glutamicum” (Proceedings of the National Academy of Sciences of the …, 2025).

How the values were obtained:
[1] = target: PS2 S-layer protein, ex vivo S-layer fragments from C. glutamicum ATCC13032 icd::cspB (C. glutamicum); experiment: cryo-EM structure; ex vivo PS2 S-layer fragments, 0.02% DDM added before plunging, tilted images at 15° and 30°, single-particle reconstruction with C6 symmetry; lattice of hexamers (C6) joined by trimeric (C3) contacts
[2] = target: the molecule itself; experiment: negative-stain electron microscopy of isolated S-layer sheets; isolated S-layer sheets (cleared SDS extractions of C. glutamicum; washed recombinant sheets from E. coli); lattice seen in the power spectrum; sheets also kept after incubation with 10 mM EDTA

Molecule: PS2 S-layer protein, ex vivo S-layer fragments from C. glutamicum ATCC13032 icd::cspB (natural protein)
- stoichiometry N [1]: 6

B1: PS2 assembly domain (PS2^AD; residues 30 to 483), recombinant (domain or fragment, C. glutamicum, UniProt Q04985 30-483, looked up)
chain: AQETNPTFNITNGFNDADGSTIQPVGPVNHTEETLRDLTDSTGAYLEEFQNGTVEEIVEAYLQVQASADGFDPSEQAAYEAFEAARVRASQELAASAETITKTRESVAYALKVDQEATAAFEAYRNALRDAAISINPDGSINPDTSINLLIDAANAANRTDRAEIEDYAHLYTQTDIALETPQLAYAFQDLKALQAEVDADFEWLGEFGIDQEDGNYVQRYHLPAVEALKAEVDARVAAIEPLRADSIAKNLEAQKSDVLVRQLFLERATAQRDTLRVVEAIFSTSARYVELYENVENVNVENKTLRQHYSALIPNLFIAAVANISELNAADAEAAAYYLHWDTDLATNDEDEAYYKAKLDFAIETYAKILFNGEVWQEPLAYVQNLDAGARQEAADREAARAADEAYRAEQLRIAQEAADAQKAIAEALAKEAEGNNDNSSDNTETGSSDIGS
notes: PS2 (cspB) of C. glutamicum, residues 30 to 483; the membrane anchoring domain is replaced by a hexahistidine tag; Vector pASK-IBA3plus; also called recombinant soluble PS2^AD; plasmid A231; source: E. coli BL21 (DE3) cytoplasm, gel-like pelleted fraction, washed with 1% DDM and SEC buffer; not shown: hexahistidine, C-terminal, kept
- binding result [2]: binds
